Data published in patent US11883434B2, “Extracellular vesicles and methods of using” (NUtech Ventures, priority 2017, dated 2024).
Where two headings read alike, the source gives them in different places.

Columns and labels:
Format in all cases: cell-based
[1] = tested on: human colon carcinoma Caco-2 cells; set-up: exosome uptake: dose or concentration left out as unconfirmed
Experimental: (§1) Caco-2 cells and IEC-6 cells were seeded at a density of 20,000 and 7000 cells/well, respectively, in 96-well plates, and allowed to adhere for 48 h, when cells were 75% confluent. The exosomes were labeled with the fluorophore, FM 4-64 (Molecular Probes). One microliter of a stock solution of FM 4-64 (5.9 mmol/L) was added to 1 mL of exosome suspension and incubated for 15 min at 37° C., and excess FM 4-64 was removed by ultracentrifugation at 120,000 3 g at 4° C. for 90 min. Transport studies were conducted using FM4-64-labeled exosomes using 3-110 mg of exosomal protein/well (Caco-2 cells) or 27-652 mg of exosomal protein/well (IEC-6 cells) and incubating cells for various periods of time to assess saturation kinetics; blanks were created using solvent. Assays were calibrated by quantifying the fluorescence of a known mass of exosomes labeled with FM 4-64. Exosome uptake was analyzed by measuring the cell fluorescence at 515 (excitation) and 640 nm (emission) using a Biotek FLx800 plate reader (BioTek Instru-ments). Fluorescence readings were corrected for cell autofluorescence by subtracting signals measured in cells incubated with exosome-depleted media. Transport kinetics was modeled using the Michaelis-Menten equation and nonlinear regression; modeling was conducted using GraphPad Prism 6.0 (GraphPad Software). In Caco-2 cells, exosome uptake was linear for up to 120 min if transport was measured using nonsaturating substrate concentrations (FIG. 33A): y=0.0012x+0.014 (r2=0.97; P<0.05). In IEC-6 cells exosome uptake was linear for only up to 60 min if transport was measured using nonsaturating substrate concentrations (FIG. 33B): y=0.0033x+0.033 (r2=0.75; P<0.05). Subsequent transport studies were conducted using incubation times of 8 hours for Caco-2 cells (FIG. 34B). Transport of milk exosome uptake was also studied in human umbilical vein endothelial cells (HUVECs) human small intestinal cells (FHs cells).
In both mammalian cells, the uptake of bovine milk exosomes was mediated by saturable transport mechanisms. Transport kinetics was modeled using the Michaelis-Menten equation. Exosome uptake was analyzed by measuring the cell fluorescence at 515 (excitation) and 640 nm (emission) using a Biotek FLx800 plate reader (BioTek Instruments) as previously described above. […] When the incubation temperature was decreased from 37° C. to 4° C., the transport rate decreased from 100%+56% to 54%+13% using a substrate concentration of 55.5 μg exosomal protein/200 μL in Caco-2 cells (P<0.05; n=3). Likewise, when the incubation temperature was decreased from 37° C. to 4° C., the transport rate decreased from 100%+11% to 44%+25% using a substrate concentration of 153 μg exosomal protein/200 μL in IEC-6 cells (P<0.05; n=3). Subsequent transport studies were conducted using substrate concentrations of 55 μg/200 mL and 153 μg/200 mL in Caco-2 cells and IEC-6 cells, respectively. […] (N=3; p<0.05). […] FIGS. 37A and 37B show saturation kinetics of milk exosome uptake in human small intestinal cells (FHs cells).
To remove surface protein from milk exosomes, the exosomes were subjected to various proteases, including trypsin, proteinase K, AspN, GluC, ArgC. […] Following protease treatment, the exosomes were subject to ultracentrifugation. The supernatant containing the enzyme cleaved surface peptides were identified using LC-MS/MS using LC/MS-MS and Mascot, and glycoproteins were identified using SwissProt. One way Anova and Bonferroni's Multiple comparison was used to test for statistical significance. The pellet containing the exosomes with its surface proteins removed was resuspended in 1×PBS and used for the transport studies shown in FIGS. 40-43.
The uptake of bovine milk exosomes into human and rat intestinal cells depended on surface proteins in both exosomes and cells. Exosomes were treated with proteases as described above and depicted in FIG. 39. […]

[2] = tested on: human small intestinal cells (FHs cells); assay: Uptake of milk exosomes into FH cells (protease, glycosidase, lectin, sonication)
[3] = tested on: human umbilical vein endothelial cells (HUVEC); assay: Uptake of fluorophore-labeled milk exosomes into HUVECs; settings: exosomal surface proteins removed with proteinase K, HUVEC
[4] = tested on: rat primary small intestinal IEC-6 cells; assay: Uptake of FM4-64-labeled milk exosomes into IEC-6 cells; settings: exosomes treated with 0.105 mMol/L trypsin for 30 mins
Experimental: as §1, with “Transport studies were conducted using FM4-64-labeled exosomes using 3-110 mg of exosomal protein/well (Caco-2 cells) or 27-652 mg of exosomal protein/well (IEC-6 cells) and incubating cells for various periods of time to assess saturation kinetics; blanks were created using solvent.” left out, “Transport kinetics was modeled using the Michaelis-Menten equation and nonlinear regression; modeling was conducted using GraphPad Prism 6.0 (GraphPad Software).” left out, “Subsequent transport studies were conducted using incubation times of 8 hours for Caco-2 cells (FIG. 34B). Transport of milk exosome uptake was also studied in human umbilical vein endothelial cells (HUVECs) human small intestinal cells (FHs cells).” left out

B1: Arg-C: Cysteine protease cleaving at arginine and lysine (protein, UniProt P09870 51-181; P09870 191-526, looked up)
Clostripain light chain: NKNQKVTIMYYCDADNNLEGSLLNDIEEMKTGYKDSPNLNLIALVDRSPRYSSDEKVLGEDFSDTRLYKIEHNKANRLDGKNEFPEISTTSKYEANMGDPEVLKKFIDYCKSNYEADKYVLIMANHGGGAR
Clostripain heavy chain: AICWDDSNLDKNGEADCLYMGEISDHLTEKQSVDLLAFDACLMGTAEVAYQYRPGNGGFSADTLVASSPVVWGPGFKYDKIFDRIKAGGGTNNEDDLTLGGKEQNFDPATITNEQLGALFVEEQRDSTHANGRYDQHLSFYDLKKAESVKRAIDNLAVNLSNENKKSEIEKLRGSGIHTDLMHYFDEYSEGEWVEYPYFDVYDLCEKINKSENFSSKTKDLASNAMNKLNEMIVYSFGDPSNNFKEGKNGLSIFLPNGDKKYSTYYTSTKIPHWTMQSWYNSIDTVKYGLNPYGKLSWCKDGQDPEINKVGNWFELLDSWFDKTNDVTGGVNHYQW
[1]
  effect on exosome uptake in Caco-2 cells: significant decrease in exosome transport

B2: PNA: Lectin binding Galβ1-3GalNAcα1-Ser/Thr (protein, UniProt P02872 24-273, looked up)
Galactose-binding lectin: AETVSFNFNSFSEGNPAINFQGDVTVLSNGNIQLTNLNKVNSVGRVLYAMPVRIWSSATGNVASFLTSFSFEMKDIKDYDPADGIIFFIAPEDTQIPAGSIGGGTLGVSDTKGAGHFVGVEFDTYSNSEYNDPPTDHVGIDVNSVDSVKTVPWNSVSGAVVKVTVIYDSSTKTLSVAVTNDNGDITTIAQVVDLKAKLPERVKFGFSASGSLGGRQIHLIRSWSFTSTLITTTRRSIDNNEKKIMNMASA
[2]; FH cells treated with the labelled agent
  effect on exosome uptake in FH cells: decreases the uptake
[2]; exosomes treated with the labelled agent
  effect on exosome uptake in FH cells: decreases the uptake

B3: proteinase K: Non-specific protease used to remove surface proteins from exosomes or cells (protein, UniProt P06873 106-384, looked up)
Proteinase K: AAQTNAPWGLARISSTSPGTSTYYYDESAGQGSCVYVIDTGIEASHPEFEGRAQMVKTYYYSSRDGNGHGTHCAGTVGSRTYGVAKKTQLFGVKVLDDNGSGQYSTIIAGMDFVASDKNNRNCPKGVVASLSLGGGYSSSVNSAAARLQSSGVMVAVAAGNNNADARNYSPASEPSVCTVGASDRYDRRSSFSNYGSVLDIFGPGTSILSTWIGGSTRSISGTSMATPHVAGLAAYLMTLGKTTAASACRYIADTANKGDLSNIPFGTVNLLAYNNYQA
[3]
  exosome uptake: 50 % of controls
[1]; CaCo2 cells treated with proteinase K
  exosome uptake: 18%±16%
[1]; exosomes treated with proteinase K
  exosome uptake: 32%±25%
[1]; removal of exosome and cell surface proteins, inhibition of endocytosis/vesicle trafficking, or of glycoprotein binding
  decrease of exosome uptake compared with controls: 61-85%

B4: trypsin: Serine protease cleaving at lysine or arginine; applied to exosomes or cells (protein, UniProt P00761 9-231, looked up)
Trypsin: IVGGYTCAANSIPYQVSLNSGSHFCGGSLINSQWVVSAAHCYKSRIQVRLGEHNIDVLEGNEQFINAAKIITHPNFNGNTLDNDIMLIKLSSPATLNSRVATVSLPRSCAAAGTECLISGWGNTKSSGSSYPSLLQCLKAPVLSDSSCKSSYPGQITGNMICVGFLEGGKDSCQGDSGGPVVCNGQLQGIVSWGYGCAQKNKPGVYTKVCNYVNWIQQTIAAN
[1]
  effect on exosome uptake in Caco-2 cells: significant decrease in exosome transport
[1]; exosomes treated with the labelled protease, intestinal transport
  transport rates (Vmax): 40±0.6 arbitrary units
[4]
  exosome uptake: 82%±8%
